Measured values published in paper PMC10520873, “Biochemical investigation of the tryptophan biosynthetic enzyme anthranilate phosphoribosyltransferase in plants” (The Journal of Biological Chemistry, 2023).

Substrate: Nc1c(O)cccc1C(=O)O
Experiment: purified protein
Assay type: biochemical, Physcomitrium patens
Settings: 1 mM PR-PPi, 45 mM imidazole HCl pH 7.4, 30 °C, 3-HAA 0-0.5 mM

B1: PpPAT1 (Physcomitrium patens) (protein)
chain: MAAALASQRTWLPSSSVGPFRGSFATAPASSPRVLGVPRKFAVESGKWEVLVRNVRAQSSTVTVPARTLSIPQVLEQLIQGTNLTQAQTEEVMETLLADANPAIIGAFLALLRAKGETLDEVTGLASAMLSRAIPVRTVPGSLDIVGTGGDGANTVNISTGSCILAAACGAKVAKHGSRSSSSACGSADVLETLGVAIDLGPEGVAKCVEDVGVGFMFAPTYHPAMKVVAPVRRSLKIKTAFNILGPMLNPSRAPHSIVGVYHDNLVEKMAKILQHFGTKRTLVVHCHGLDEMSPLGGGRVLEVTQDKIESFVFDPLNFGIPRCTLEDLKGGNADFNAKSLRNVFAGEPGPIADSLILNAAAGIMACGLVKDLGEGVSLARDVLRSGRANTVLDNWISLSQKLKAEEVSE
notes: codon-optimized gene in pET28a, His-tagged, E. coli BL21 (DE3), Ni-NTA
For B1, the Km was 99.71 ± 11.2 µM, the kcat was 0.0533 ± 0.00167 s⁻¹ and the kcat/Km was 537 M⁻¹ s⁻¹.
